This experiment has as its system L-serine. The experiment is described as follows: L-serine biosensor dose response by exogenous addition of L-serine (eyfp fluorescence intensity/OD600). The experiment is classed as cell-based, E. coli JM109. Conditions: for detection limit of the biosensor (L-serine concentration at which the dose response curve shows an obvious upward trend): E. coli JM109, L-serine 0, 25, 50, 75 or 100 mM, 2 h at 37° C., PSerE-eyfp reporter. On the procedure:
Determination of fluorescence intensity and biomass of bacteria: E. coli in the medium was centrifuged at 4° C. and 4000 g for 5 min to collect the bacteria, washed with a precooled PBS buffer for 2-3 times, resuspended and diluted in a PBS buffer (OD600=0.2-0.8). 200 μL of the diluted bacterial liquid was pipetted and added into a 96-well plate, and the fluorescence intensity and bacterial concentration were determined with a multifunctional microplate reader. During the determination of the fluorescence intensity, the parameters of the microplate reader were set to a yellow fluorescent protein excitation wavelength of 488 nm and an emission wavelength of 590/9 nm; and during the determination of the bacteria concentration, the parameters of the microplate reader were set to λ=600.
One part of the biosensor was used for the expression of the transcription regulator NCgl0581, and the other part was connected with the promoter PSerE regulated by NCgl0581, and then connected with eyfp, which was used to characterize the binding of the biosensor to L-serine so as to regulate the transcription level of eyfp. The nucleotide sequence of the promoter PSerE is shown in SEQ ID NO.5, and the nucleotide sequence of the reporter gene eyfp is shown in SEQ ID No.6.
On the basis of site-directed mutation, E. coli JM109 single colonies containing wild-type NCgl0581 and mutant E136P were selected and inoculated into a 10 mL LB (100 μg/mL Kan) liquid medium, and cultured overnight at 37° C. and 220 rpm. A 950 μL of fresh LB medium was added to each well in a sterilized 24-well plate, and then L-serine with different concentrations was added, with the final concentration controlled to be 0, 25, 50, 75 or 100 mM respectively. Finally, 50 μL of the overnight culture bacteria liquid was added to each well, and the well plate was cultured in a shaker for 2 h at 37° C. and 220 rpm.
E. coli JM109 in the medium was centrifuged for 5 min to collect the bacteria, washed with a PBS buffer for 2-3 times, resuspended and diluted in a PBS buffer (OD600=0.2-0.8). 200 μL of the diluted bacterial liquid was pipetted and added into a 96-well plate, and the bacterial concentration OD600 and fluorescence intensity were determined with a multifunctional microplate reader, with the calculated fluorescence intensity/OD600 as the fluorescence intensity value per unit of bacterial cell.
With the fluorescence intensity/OD600 as the ordinate and the L-serine concentration as the abscissa, the dose response curve of the biosensor to L-serine was drawn by OriginPro 8.5. […] According to the response curve, the detection range of wild-type NCgl0581 and mutant E136P could be obtained respectively.

Numbering of substitutions follows the chain as printed. Names and notes keep the numbering of the source.

B1: NCgl0581^E136P: transcription factor NCgl0581 mutant, 136th glutamic acid of SEQ ID NO.1 mutated into proline (SEQ ID NO.3) (protein)
chain: VLNLNRLHILQEFHRLGTITAVAESMNYSRSAISQQMALLEKEIGVKLFEKSGRNLYFTEQGEVLASETHAIMAAVDHARAAVLDSLSEVSGTLKVTSFQSLLFTLAPKAIARLTEKYPHLQVEISQLEVTAALEPLRARRVDVALGEEYPVEVPLVEASIHREVLFEDPMLLVTPASGPYSGLTLPELRDIPIAIDPPDLPAGEWVHRLCRRAGFEPRVTFETSDPMLQAHLVRSGLAVTFSPTLLTPMLESVHIQPLPGNPTRTLYTAVREGRQGHPAIKAFRRALAHVAKESYLEARLVE
With B1, the “detection limit of the biosensor (L-serine concentration at which the dose response curve shows an obvious upward trend)” value is on record as 25 mM. In addition, the “change of detection limit of the biosensor versus wild type” value (biosensor in E. coli, L-serine concentration gradients) was “reduced by half”. Besides, under “biosensor in E. coli, exogenous addition of L-serine”, the “response concentration to L-serine” value came to 25 mM.

B2: wild-type NCgl0581: wild-type LysR-family transcription regulator of Corynebacterium glutamicum (SEQ ID NO.1); L-serine biosensor pDSer is based on it (protein)
chain: B1 chain with P136E
Turning to B2, the “detection limit of the biosensor (L-serine concentration at which the dose response curve shows an obvious upward trend)” value worked out at 50 mM.

The record behind these values is US12448422B2, “Transcription factor NCgl0581 mutant and use thereof in L-serine detection” (JITRI FUTURE FOOD TECHNOLOGY INSTITUTE CO., LTD., priority 2023, dated 2025).
